The source of these data is patent US20240197906A1, “ANTI-cMET ANTIBODY DRUG CONJUGATES AND [sequence] USES THEREOF” (Mythic Therapeutics, Inc., priority 2022, published 2024).

Entries after “also recorded” stand apart in the source; their conditions may differ. Non-standard residues stand in square brackets, D forms with d. Residues, ends and D or L forms follow the SMILES beside them. *: point of attachment. Dolaproine = CO[C@@H]([C@@H]1CCCN1)[C@@H](C)C(=O)O; Dil = CC[C@H](C)[C@H](NC)[C@@H](CC(=O)O)OC; X1 = C[C@@H](N*)[C@@H](O)c1ccccc1; NMeV = CN[C@H](C(=O)O)C(C)C

As usually defined, the Kd is a measure of binding affinity in units of concentration.

Experiment [1] has as its system phosphorylation of ERK1/2 and Akt1 in NCI-H441 cells. In words: Cell signaling assay (ELISA). Format: cell-based, human. The conditions noted are these: 10 μg/mL, 30 minutes. How it is done: Cell Signaling Assay. Briefly: NCI-H441 cells were cultured in standard culture media (RPMI-1640 Medium+10% fetal bovine serum) using conditions recommended by the vendor. For the cell signaling assay, NCI-H441 cells were seeded in 6-well plates at 300,000 cells per well in culture media. The next day, the cells were washed with serum-free medium twice and then replenished with 3 mL RPMI+0.2% fetal bovine serum.
The following day, cells were treated with 50 ng/ml HGF or 10 μg/mL of test articles and incubated for 30 minutes at 37° C. Following the 30-minute stimulation, the treatment medium was aspirated, the cells were washed 2 times in an excess volume of ice-cold phosphate buffered saline and collected by cell scraping on ice in 250 μL ice-cold lysis buffer per well and transferred to pre-chilled tubes. […] Lysates were thawed on ice for 1 hour with occasional vortexing, and protein concentrations were measured using the BCA protein assay according to the manufacturer's instructions. Lysates were diluted in lysis buffer to final concentration 0.5 mg/mL, and 100 μL of each sample was assessed using commercially available ELISA kits to detect total ERK1/2 and Akt1 and their phosphorylated forms. ELISAs were performed and analyzed according to the manufacturer's instructions. […]
On the technique in general: In an ELISA, binding on a coated surface is turned into a signal by an enzyme label.

The subject of experiment [2] is EBC-1 cells. In words: Complement dependent cytotoxic assay. Conditions: 30% human complement. In kind it is cell-based. How it is done: Complement Dependent Cytotoxic Assay. EBC-1 cells were incubated with serially diluted test articles: Q397-noV205C or non-binding antibody. For the technical control, Raji cells, which expresses CD20 on the cell surface, were incubated with serially diluted test articles: anti-CD20 (research grade recombinant anti-CD20 rituximab, catalog number A2009) or non-binding antibody (human IgG1 isotype control antibody, catalog number BE0297). Briefly, EBC-1 and Raji cells were added to a 96-well U-bottom plate at a density of 2.5×10^4 cells/well. Serially diluted test articles were added to the plate. The starting concentration of all test articles was 100 nM. A 3-fold dilution was performed for 9 concentration points and added to the test plate in duplicates. The plate was then incubated for 30 minutes at 37° C. At the end of the culture period, either heat inactivated or pooled human complement sera at a final concentration of 30% diluted in culture media (RPMI) was added to the plate. The plate was then incubated at 37 °C for two hours and cell lysis was assessed using CellTiter-Glo.

Experiment [3] relates to EBC-1 cells. Description: ADCC effector function with PBMCs. In kind it is cell-based, human. The conditions noted are these: PBMCs from all donors, vs IgG1 isotype control.
Experiment [4] relates to EBC-1 cells. In words: ADCP effector function. Conditions: vs IgG1 isotype control. In kind it is cell-based, human.
In the next experiment the test system is NCI-H441 cells. Description: Cell proliferation assay (CellTiter-Glo). Format: cell-based, human. Conditions: 10 nM, 4 days, serum starved.
Experiment [5] relates to EBC-1 cells. In words: Cell cycle arrest assay. Format: cell-based, human. The conditions noted are these: 10 nM, 24 hours. How it is done: Cell Cycle Arrest Assay. Briefly, EBC-1 cells were cultured in standard culture media (Eagle's minimum essential medium+10% fetal bovine serum) and conditions recommended by the vendor. Cells were plated at a density of 2×10^4 cells per well and incubated at 37° C. for 24 hours. […] Plates were incubated for 24 hours at 37° C. At the end of the culture period, test articles were removed from the plate. Cells were trypsinized, washed, and fixed in 70% ethanol for 30 minutes. Cells were washed, stained with propidium iodide staining using a cell cycle analysis kit (Abcam), and assessed by flow cytometry.

A further experiment deals with recombinant human cMET (human, UniProt P08581 25-932, limits assumed). Description: BLI (Octet), antibody captured on AHC sensor, recombinant human cMET as analyte, pH 7.4; BLI, recombinant human cMET as analyte, pH 7.4. On the technique in general: BLI is a label-free optical method that tracks binding on a fibre tip over time.
Chain of recombinant human cMET (P08581 25-932 limits assumed): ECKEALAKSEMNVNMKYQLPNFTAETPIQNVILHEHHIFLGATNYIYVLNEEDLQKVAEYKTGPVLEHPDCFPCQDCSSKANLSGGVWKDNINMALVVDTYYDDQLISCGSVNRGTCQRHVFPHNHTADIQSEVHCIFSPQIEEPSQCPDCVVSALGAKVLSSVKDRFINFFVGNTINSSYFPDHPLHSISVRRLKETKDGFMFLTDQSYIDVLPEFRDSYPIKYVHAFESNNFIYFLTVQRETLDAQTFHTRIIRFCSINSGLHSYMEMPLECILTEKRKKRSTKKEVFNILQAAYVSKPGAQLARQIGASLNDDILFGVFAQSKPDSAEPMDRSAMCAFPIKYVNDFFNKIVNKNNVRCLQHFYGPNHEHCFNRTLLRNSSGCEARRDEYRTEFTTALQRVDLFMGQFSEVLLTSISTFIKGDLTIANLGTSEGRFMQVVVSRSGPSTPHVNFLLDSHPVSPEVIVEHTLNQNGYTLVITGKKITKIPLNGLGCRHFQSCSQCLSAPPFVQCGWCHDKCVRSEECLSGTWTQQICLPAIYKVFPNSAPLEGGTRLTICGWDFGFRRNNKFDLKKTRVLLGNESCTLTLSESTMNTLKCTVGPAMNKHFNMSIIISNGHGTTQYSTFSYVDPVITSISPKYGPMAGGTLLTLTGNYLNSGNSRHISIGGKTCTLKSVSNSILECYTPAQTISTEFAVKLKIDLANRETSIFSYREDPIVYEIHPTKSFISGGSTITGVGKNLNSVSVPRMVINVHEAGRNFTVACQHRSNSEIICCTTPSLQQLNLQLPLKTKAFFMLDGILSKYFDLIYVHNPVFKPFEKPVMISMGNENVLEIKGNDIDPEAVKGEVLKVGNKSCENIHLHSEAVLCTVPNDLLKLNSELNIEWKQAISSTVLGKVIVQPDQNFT
Experiment [6] deals with recombinant cynomolgus monkey cMET (cynomolgus monkey, UniProt A0A2K5UM36 25-932). In words: BLI (Octet), antibody captured on AHC sensor, recombinant cynomolgus monkey cMET as analyte, pH 7.4.
Chain of recombinant cynomolgus monkey cMET (A0A2K5UM36 entry or part of it limits assumed): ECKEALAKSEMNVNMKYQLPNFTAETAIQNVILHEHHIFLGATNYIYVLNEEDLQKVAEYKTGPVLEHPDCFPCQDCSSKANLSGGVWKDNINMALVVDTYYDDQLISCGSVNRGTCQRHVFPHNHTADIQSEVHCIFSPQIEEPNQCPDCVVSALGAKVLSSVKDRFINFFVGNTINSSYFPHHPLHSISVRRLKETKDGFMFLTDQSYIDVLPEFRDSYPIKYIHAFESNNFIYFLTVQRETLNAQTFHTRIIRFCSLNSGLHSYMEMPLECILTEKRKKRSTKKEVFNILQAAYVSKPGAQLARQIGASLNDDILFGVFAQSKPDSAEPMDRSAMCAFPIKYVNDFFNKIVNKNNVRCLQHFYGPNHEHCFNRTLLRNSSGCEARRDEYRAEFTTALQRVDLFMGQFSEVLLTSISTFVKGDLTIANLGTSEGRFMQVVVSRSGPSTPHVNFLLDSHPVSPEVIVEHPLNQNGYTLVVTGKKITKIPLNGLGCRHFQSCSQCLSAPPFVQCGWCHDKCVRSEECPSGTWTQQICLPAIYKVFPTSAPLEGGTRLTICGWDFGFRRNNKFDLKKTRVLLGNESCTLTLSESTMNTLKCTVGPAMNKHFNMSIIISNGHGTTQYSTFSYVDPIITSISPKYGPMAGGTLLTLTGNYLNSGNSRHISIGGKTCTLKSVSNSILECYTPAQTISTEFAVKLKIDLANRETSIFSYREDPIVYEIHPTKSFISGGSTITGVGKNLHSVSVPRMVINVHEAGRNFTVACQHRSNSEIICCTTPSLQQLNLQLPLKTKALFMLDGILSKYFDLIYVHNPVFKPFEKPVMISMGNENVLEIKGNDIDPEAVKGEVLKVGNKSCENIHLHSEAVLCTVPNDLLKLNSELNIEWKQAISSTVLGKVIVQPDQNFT
The next experiment deals with mouse cMET (mouse, UniProt P16056 25-931, limits assumed). In words: ELISA or BLI (the filing does not say which).
Chain of mouse cMET (P16056 25-931 limits assumed): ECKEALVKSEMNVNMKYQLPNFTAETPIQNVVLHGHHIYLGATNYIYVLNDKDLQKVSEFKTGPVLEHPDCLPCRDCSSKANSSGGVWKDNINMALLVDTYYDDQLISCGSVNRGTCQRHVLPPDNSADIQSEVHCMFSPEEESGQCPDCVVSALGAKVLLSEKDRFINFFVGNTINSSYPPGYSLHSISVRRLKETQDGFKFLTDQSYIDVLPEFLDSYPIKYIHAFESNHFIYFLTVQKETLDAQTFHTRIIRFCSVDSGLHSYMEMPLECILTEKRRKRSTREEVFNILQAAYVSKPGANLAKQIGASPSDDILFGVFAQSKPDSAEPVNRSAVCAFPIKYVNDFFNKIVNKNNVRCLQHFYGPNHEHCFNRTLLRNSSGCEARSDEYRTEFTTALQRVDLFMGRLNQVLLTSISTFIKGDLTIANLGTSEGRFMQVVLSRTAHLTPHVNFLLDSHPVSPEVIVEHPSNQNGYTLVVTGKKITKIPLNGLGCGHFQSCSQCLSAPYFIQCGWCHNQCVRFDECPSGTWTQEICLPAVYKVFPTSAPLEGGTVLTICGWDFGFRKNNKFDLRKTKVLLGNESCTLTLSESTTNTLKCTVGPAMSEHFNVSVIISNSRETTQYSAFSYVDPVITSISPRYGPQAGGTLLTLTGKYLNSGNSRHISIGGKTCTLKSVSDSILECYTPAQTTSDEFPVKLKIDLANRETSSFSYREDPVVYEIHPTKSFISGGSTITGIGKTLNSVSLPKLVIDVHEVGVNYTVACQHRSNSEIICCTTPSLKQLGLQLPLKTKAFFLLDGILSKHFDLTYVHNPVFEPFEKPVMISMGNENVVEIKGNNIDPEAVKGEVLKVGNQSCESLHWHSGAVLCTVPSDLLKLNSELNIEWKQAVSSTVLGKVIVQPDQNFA
For a further experiment, the target named is rat cMET (rat, UniProt P97523 25-935, limits assumed). Description: ELISA or BLI (the filing does not say which).
Chain of rat cMET (P97523 25-935 limits assumed): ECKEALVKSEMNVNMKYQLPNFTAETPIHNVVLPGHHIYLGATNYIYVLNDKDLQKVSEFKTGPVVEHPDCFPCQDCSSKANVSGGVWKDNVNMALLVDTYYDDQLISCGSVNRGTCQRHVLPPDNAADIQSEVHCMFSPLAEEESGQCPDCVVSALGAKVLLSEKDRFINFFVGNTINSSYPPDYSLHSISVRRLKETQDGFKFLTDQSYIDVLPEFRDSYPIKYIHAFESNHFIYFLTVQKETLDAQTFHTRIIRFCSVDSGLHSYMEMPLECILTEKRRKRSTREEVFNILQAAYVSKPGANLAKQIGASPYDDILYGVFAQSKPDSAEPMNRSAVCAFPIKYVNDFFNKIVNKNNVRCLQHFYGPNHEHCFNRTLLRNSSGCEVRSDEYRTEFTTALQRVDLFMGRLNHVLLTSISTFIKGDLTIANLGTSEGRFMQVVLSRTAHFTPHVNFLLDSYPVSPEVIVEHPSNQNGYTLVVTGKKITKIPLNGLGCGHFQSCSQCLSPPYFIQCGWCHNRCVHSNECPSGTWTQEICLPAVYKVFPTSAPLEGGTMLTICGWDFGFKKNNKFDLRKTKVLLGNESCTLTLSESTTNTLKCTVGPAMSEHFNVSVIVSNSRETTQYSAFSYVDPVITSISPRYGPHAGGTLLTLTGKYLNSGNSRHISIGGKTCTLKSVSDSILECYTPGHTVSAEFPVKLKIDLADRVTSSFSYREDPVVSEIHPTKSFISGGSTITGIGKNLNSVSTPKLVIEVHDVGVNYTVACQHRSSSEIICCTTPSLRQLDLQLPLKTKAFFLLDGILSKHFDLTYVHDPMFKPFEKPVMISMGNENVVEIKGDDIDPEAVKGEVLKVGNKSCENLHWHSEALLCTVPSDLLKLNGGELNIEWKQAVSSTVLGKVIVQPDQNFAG
Experiment [7] addresses human cMET on cMET+ human cancer cells (human, UniProt P08581 25-1390). Description: cell-based or functional assay.

Chain of human cMET on cMET+ human cancer cells (P08581 25-1390): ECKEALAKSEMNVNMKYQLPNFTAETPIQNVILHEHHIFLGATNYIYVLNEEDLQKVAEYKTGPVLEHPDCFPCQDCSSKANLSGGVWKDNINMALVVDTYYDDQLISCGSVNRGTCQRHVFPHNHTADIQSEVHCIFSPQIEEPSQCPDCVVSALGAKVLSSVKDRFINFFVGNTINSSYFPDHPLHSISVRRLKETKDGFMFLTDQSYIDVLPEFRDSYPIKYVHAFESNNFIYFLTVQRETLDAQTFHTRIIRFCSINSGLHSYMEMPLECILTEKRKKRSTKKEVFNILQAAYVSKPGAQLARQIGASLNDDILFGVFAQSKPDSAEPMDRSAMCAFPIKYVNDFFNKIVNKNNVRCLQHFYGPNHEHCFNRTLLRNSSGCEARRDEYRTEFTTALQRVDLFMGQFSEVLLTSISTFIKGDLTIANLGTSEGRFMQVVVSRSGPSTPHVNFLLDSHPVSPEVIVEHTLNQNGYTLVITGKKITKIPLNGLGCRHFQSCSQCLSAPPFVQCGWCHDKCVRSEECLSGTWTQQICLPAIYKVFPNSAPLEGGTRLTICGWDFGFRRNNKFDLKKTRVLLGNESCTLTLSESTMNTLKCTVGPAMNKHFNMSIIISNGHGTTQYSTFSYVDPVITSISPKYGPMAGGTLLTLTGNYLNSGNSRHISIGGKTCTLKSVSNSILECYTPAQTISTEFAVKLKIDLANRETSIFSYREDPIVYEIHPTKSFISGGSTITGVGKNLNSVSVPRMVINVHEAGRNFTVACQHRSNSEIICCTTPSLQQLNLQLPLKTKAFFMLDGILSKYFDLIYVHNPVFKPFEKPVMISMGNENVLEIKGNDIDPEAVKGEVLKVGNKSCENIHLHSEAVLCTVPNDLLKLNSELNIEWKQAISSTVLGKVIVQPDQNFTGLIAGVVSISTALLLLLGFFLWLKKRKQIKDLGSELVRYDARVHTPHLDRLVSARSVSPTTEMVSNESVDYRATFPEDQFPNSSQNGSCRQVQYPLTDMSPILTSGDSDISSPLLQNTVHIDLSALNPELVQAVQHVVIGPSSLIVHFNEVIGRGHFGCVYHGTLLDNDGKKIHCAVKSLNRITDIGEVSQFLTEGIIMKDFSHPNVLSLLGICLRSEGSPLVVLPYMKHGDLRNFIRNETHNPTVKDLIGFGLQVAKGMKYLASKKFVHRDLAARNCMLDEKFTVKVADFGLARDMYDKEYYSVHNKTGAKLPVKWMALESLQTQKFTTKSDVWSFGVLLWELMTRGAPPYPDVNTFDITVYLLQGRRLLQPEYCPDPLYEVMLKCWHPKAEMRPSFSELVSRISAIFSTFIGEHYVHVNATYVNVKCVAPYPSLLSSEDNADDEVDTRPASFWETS

As for “Q397-noV205C: Anti-cMET antibody of MYTX-011 without the V205C substitution; SEQ ID NO: 75 and SEQ ID NO: 81”, the “phosphorylation of ERK1/2 or Akt1” value in experiment [1] is “minimal phosphorylation”. The “CDC activity (EBC-1 cell lysis)” value with EBC-1 cells [2] was “minimal to no; also recorded: did not induce EBC-1 cell lysis”. Besides, in the experiment with EBC-1 cells [3], the ADCC activity entry is reported as “minimal to no; also recorded: Minimal ADCC activity”. The ADCP activity entry in the experiment on EBC-1 cells [4] is recorded as “minimal to no; also recorded: no ADCP activity”. Besides, the “proliferation of cMET+ NCI-H441 cells” value in the experiment on NCI-H441 cells is reported as “did not increase”.
Regarding `CC[C@H](C)[C@@H]([C@@H](CC(=O)N1CCC[C@H]1[C@H](OC)[C@@H](C)C(=O)N[C@H](C)[C@@H](O)c1ccccc1)OC)N(C)C(=O)[C@@H](NC(=O)[C@@H](NC)C(C)C)C(C)C` [MMAE, monomethyl auristatin E] (H-[NMeV]V[Dil][Dolaproine]-X1), the “percentage of cells in G2-M phase” value with EBC-1 cells [5] came to 68.6%.

B1: MYTX-011 mAb (antibody, V domains shown)
VH: QVQLVQSGAEVKKPGASVKVSCKASGYTFTDYYMHWVRQAPGQGLEWMGRVNPNRRGTTYNQKFEGRVTMTTDTSTSTAYMELRSLRSDDTAVYYCARANWLDYWGQGTTVTVSS
VL: DIQMTQSPSSLSASVGDRVTITCSVSSSVSSIHLHWYQQKPGKAPKLLIYHTSNLASGVPSRFSGSGSGTDFTLTISSLQPEDFATYYCQVYSGYPLTFGGGTKVEIKR
notes: also called Q397
For B1, the equilibrium dissociation constant (Kd) was found to be 4 nM with recombinant human cMET and 9.44 nM in experiment [6]. For the same molecule, the binding result with mouse cMET and with rat cMET was “no binding” in each case. The “uptake of pHrodo-conjugated mAb in NCI-H1975 cells by live cell imaging, at 24 hours, over the parent mAb” value in [7] was 3 fold.

B2: MYTX-011 (antibody, IgG1, V domains shown)
VH: QVQLVQSGAEVKKPGASVKVSCKASGYTFTDYYMHWVRQAPGQGLEWMGRVNPNRRGTTYNQKFEGRVTMTTDTSTSTAYMELRSLRSDDTAVYYCARANWLDYWGQGTTVTVSS
VL: DIQMTQSPSSLSASVGDRVTITCSVSSSVSSIHLHWYQQKPGKAPKLLIYHTSNLASGVPSRFSGSGSGTDFTLTISSLQPEDFATYYCQVYSGYPLTFGGGTKVEIKR
modifications: vcMMAE (mc-vc-PAB-MMAE) linked to the engineered cysteine at position 98 of the light chain constant domain ("V205C"); DAR 2
notes: Antibody drug conjugate: humanized triple hinge IgG1 kappa antibody Q397 conjugated site-specifically to vcMMAE, drug to antibody ratio 2; also called anti-cMET pH-ADC; pH-ADC
B2: the binding result with mouse cMET and with rat cMET was “no binding” each time.
